Blank lines part the entries; values can stand above or below the substance they belong to.
Experiments:
[1] = molecular target: D3H44 light chain Q124E_L135W_Q160E_T180E; test: LCCA, SPR tag readout, L1:L2 DNA 1:9 normalized to 1:1; competitor m23
[2] = molecular target: D3H44 light chain Q124E_L135W_Q160E_T180E; test: LCCA, SPR tag readout, L1:L2 DNA 1:9 normalized to 1:1; competitor m25
[3] = molecular target: D3H44 light chain Q124E_L135W_Q160E_T180E; test: LCCA, SPR tag readout, L1:L2 DNA 1:3 normalized to 1:1; competitor m23
[4] = molecular target: D3H44 light chain F116A_Q124R_L135V_T178R; test: LCCA, SPR tag readout, L1:L2 DNA 1:3 normalized to 1:1; competitor m24
[5] = molecular target: D3H44 light chain F116A_Q124R_L135V; test: as above
[6] = molecular target: D3H44 light chain F116A_Q124R_L135V_T178R; test: LCCA, SPR tag readout, L1:L2 DNA 1:9 normalized to 1:1; competitor m24
[7] = molecular target: D3H44 light chain F116A_Q124R_L135V; test: as above
[8] = molecular target: D3H44 light chain Q124E_L135W_Q160E_T180E; test: LCCA, SPR tag readout, L1:L2 DNA 1:3 normalized to 1:1; competitor m25
[9] = molecular target: D3H44 light chain T178R with N-terminal HA or FLAG tag; test: LCCA (SPR tag readout), L1:L2 DNA 1:3, normalized to 1:1; competing light chain m13
[10] = molecular target: D3H44 light chain Q38R_S131K; test: LCCA, SPR tag readout, L1:L2 DNA 1:3 normalized to 1:1; competitor m19
[11] = molecular target: D3H44 light chain Q38R_S131K; test: LCCA, SPR tag readout, L1:L2 DNA 1:9 normalized to 1:1; competitor m19
[12] = molecular target: D3H44 light chain Q38E_Q124E_Q160E_T180E; test: LCCA, SPR tag readout, L1:L2 DNA 1:3 normalized to 1:1; competitor m21
[13] = molecular target: D3H44 light chain Q38E_Q124E_Q160E_T180E; test: LCCA, SPR tag readout, L1:L2 DNA 1:9 normalized to 1:1; competitor m21
[14] = molecular target: tissue factor (TF) antigen (UniProt P13726); test: SPR, Fab captured on anti-penta-His, TF as analyte; against wild-type D3H44 Fab; batch C
[15] = molecular target: tissue factor (TF) antigen (UniProt P13726); test: SPR, Fab captured on anti-penta-His, TF as analyte, 1:1 fit; batch C
[16] = molecular target: tissue factor (TF) antigen (UniProt P13726); test: SPR (ProteOn), Fab captured by anti-penta-His, TF as analyte, 1:1 fit; estimated value taken from the Fab differing only in L chain tag
[17] = molecular target: tissue factor (TF) antigen (UniProt P13726); test: SPR (ProteOn), against wild-type D3H44 Fab; estimated value taken from the Fab differing only in L chain tag
[18] = molecular target: tissue factor (TF) antigen (UniProt P13726); test: SPR (ProteOn XPR36): His-tagged Fab captured on anti-penta-His surface, TF as analyte, 1:1 fit; value estimated (*) from the Fab differing only in the L chain tag
[19] = molecular target: tissue factor (TF) antigen (UniProt P13726); test: SPR, against wild-type D3H44 Fab
[20] = molecular target: tissue factor (TF) antigen (UniProt P13726); test: SPR (ProteOn XPR36), Fab captured on anti-penta-His, TF injected, 1:1 fit
[21] = molecular target: tissue factor (TF) antigen (UniProt P13726); test: SPR, Fab captured by anti-penta-His, TF injected, 1:1 fit
[22] = molecular target: tissue factor (TF) antigen (UniProt P13726); test: SPR; log change of median KD against wild-type D3H44 Fab

Substance: D3H44 Fab heavy chain Q39E_K145T_H172R_Q179E
H1L1:H1L2 normalized median ratio [10]: 93%
H1L1:H1L2 normalized median scalar value ln(r1/f1) [10]: 2.53
H1L1:H1L2 normalized median ratio [11]: 89%
H1L1:H1L2 normalized median scalar value ln(r1/f1) [11]: 2.09
H1L1:H1L2 normalized median ratio [12]: 7%
H1L1:H1L2 normalized median ratio [13]: 11%

Substance: D3H44 Fab heavy chain Q39E_K145T_Q179E
H1L1:H1L2 normalized median ratio [10]: 93%
H1L1:H1L2 normalized median ratio [11]: 90%
H1L1:H1L2 normalized median scalar value ln(r1/f1) [11]: 2.16
H1L1:H1L2 normalized median ratio [12]: 7%
H1L1:H1L2 normalized median ratio [13]: 10%

Substance: D3H44 Fab heavy chain Q39R_H172R_S186R
H2L2:H2L1 normalized median ratio [10]: 6%
H2L2:H2L1 normalized median ratio [11]: 7%
H2L2:H2L1 normalized median ratio [12]: 94%
H2L2:H2L1 normalized median ratio [13]: 93%

Substance: D3H44 Fab heterodimer, H1 Q179R / L1 S131E (H1L1 Fab of LCCA Set # 9980)
change in median KD compared to wild type, -(log(KD design)-log(KD wt)) [14]: 0
Kd [15]: 0.16 nM

Substance: D3H44 Fab heterodimer, H1 S186R / L1 Q124E_Q160E_T178E (H1L1 Fab of LCCA Set # 9867 and 9868)
change in median KD compared to wild type, -(log(KD design)-log(KD wt)) [14]: 0.06
Kd [15]: 0.14 nM

Substance: D3H44 Fab heterodimer, H1 S186R / L1 S131E (H1L1 Fab of LCCA Set # 9981 and 9985)
change in median KD compared to wild type, -(log(KD design)-log(KD wt)) [14]: 0.1
Kd [15]: 0.12 nM

Substance: D3H44 Fab heterodimer, H1L1 of LCCA set 9645 (H: L143E_K145T_Q179E; L: Q124K_T178R)
Kd [16]: 0.14 nM
Change in KD with respect to wild type (-(log(KD design) - log(KD wt))) [17]: 0.05

Substance: D3H44 H1L1 Fab heterodimer of LCCA set 9635 (H1 L143E_K145T_Q179D; L1 Q124R_T178R)
Change in median values of KD of h1|1 Fab heterodimer compared to wild type (-(log(KD design)-log(KD wt))) [18]: 0.04 log units
Kd [18]: 0.14 nM

Substance: H1L1 Fab heterodimer of LCCA Set # 9070 (D3H44 Fab; H1 F174G, L1 S131T_S176F_T178Y)
Change in median values of KD of h1l1 Fab heterodimer compared to wild type (-(log(KD design)-log(KD wt))) [19]: 0
Kd [20]: 0.16 nM

Substance: H1L1 Fab heterodimer of LCCA Set # 9074 (D3H44 Fab; H1 H172R_Q179K, L1 Q124E_Q160E_T180E)
Change in median values of KD of h1l1 Fab heterodimer compared to wild type (-(log(KD design)-log(KD wt))) [19]: -0.01
Kd [20]: 0.16 nM

Substance: H1L1 Fab heterodimer of LCCA Set # 9569 (D3H44 Fab; H1 L124W_L143F, L1 V133A_S176T_T178L)
Change in median values of KD of h1l1 Fab heterodimer compared to wild type (-(log(KD design)-log(KD wt))) [19]: -0.28
Kd [20]: 0.3 nM

Substance: H1L1 Fab heterodimer of LCCA set 9058 (D3H44 Fab, H1 A139W_L143E_K145T_Q179E, L1 F116A_Q124R_L135V)
Kd [21]: 0.12 nM
Change in median values of KD of h1l1 Fab heterodimer compared to wild type (-(log(KD design)-log(KD wt))) [22]: 0.12 log units

Substance: H1L1 Fab heterodimer of LCCA sets 9574 and 9573 (D3H44 Fab, H1 L143A_Q179K, L1 Q124E_V133Y_T180E)
Kd [21]: 0.27 nM
Change in median values of KD of h1l1 Fab heterodimer compared to wild type (-(log(KD design)-log(KD wt))) [22]: -0.23 log units

Results, then the substance that gave them:

H1L1:H1L2 normalized median ratio [1]: 3%
H2L2:H2L1 normalized median ratio [1]: 3%
H1L1:H1L2 normalized median ratio [2]: 5%
H2L2:H2L1 normalized median ratio [2]: 5%
H1L1:H1L2 normalized median ratio [3]: 2%
H2L2:H2L1 normalized median ratio [3]: 2%
H1L1:H1L2 normalized median ratio [4]: 98%
H1L1:H1L2 normalized median scalar value ln(r1/f1) [4]: 3.79
H2L2:H2L1 normalized median ratio [4]: 98%
H1L1:H1L2 normalized median ratio [5]: 97%
H1L1:H1L2 normalized median scalar value ln(r1/f1) [5]: 3.66
H2L2:H2L1 normalized median ratio [5]: 97%
H1L1:H1L2 normalized median ratio [6]: 97%
H1L1:H1L2 normalized median scalar value ln(r1/f1) [6]: 3.38
H2L2:H2L1 normalized median ratio [6]: 97%
H1L1:H1L2 normalized median ratio [7]: 95%
H1L1:H1L2 normalized median scalar value ln(r1/f1) [7]: 2.96
H2L2:H2L1 normalized median ratio [7]: 95%
H1L1:H1L2 normalized median ratio [8]: 3%
H2L2:H2L1 normalized median ratio [8]: 3%
Substance: D3H44 Fab heavy chain A139W_L143E_K145T_Q179E

H1L1:H1L2 normalized median ratio [9]: 79%
H1L1:H1L2 normalized median scalar value ln(r1/f1) [9]: 1.31
Substance: D3H44 Fab heavy chain L143D_K145T_Q179E with C-terminal ABD2-His6 tag

H2L2:H2L1 normalized median ratio [10]: 4%
H2L2:H2L1 normalized median ratio [11]: 4%
H2L2:H2L1 normalized median ratio [12]: 96%
H2L2:H2L1 normalized median ratio [13]: 96%
Substance: D3H44 Fab heavy chain Q39R_S186R

H2L2:H2L1 normalized median ratio [1]: 87%
H2L2:H2L1 normalized median ratio [2]: 80%
H2L2:H2L1 normalized median ratio [3]: 88%
H2L2:H2L1 normalized median ratio [4]: 12%
H2L2:H2L1 normalized median ratio [5]: 23%
H2L2:H2L1 normalized median ratio [6]: 13%
H2L2:H2L1 normalized median ratio [7]: 20%
H2L2:H2L1 normalized median ratio [8]: 77%
Substance: D3H44 Fab heavy chain Q179K

change in median KD compared to wild type, -(log(KD design)-log(KD wt)) [14]: 0.01
Kd [15]: 0.15 nM
Substance: D3H44 Fab heterodimer, H1 S186K / L1 Q124E_T178E (H1L1 Fab of LCCA Set # 9850 and 9849)

change in median KD compared to wild type, -(log(KD design)-log(KD wt)) [14]: 0.49
Kd [15]: 0.05 nM
Substance: D3H44 Fab heterodimer, H1 S186R / L1 Q124E_T178E_T180E (H1L1 Fab of LCCA Set # 9889 and 9890)

Kd [16]: 0.15 nM
Change in KD with respect to wild type (-(log(KD design) - log(KD wt))) [17]: 0.02
Substance: D3H44 Fab heterodimer, H1L1 of LCCA set 9131 (H: L124E_K145M_Q179E; L: S131K_V133G_S176R)

Kd [16]: 0.15 nM
Change in KD with respect to wild type (-(log(KD design) - log(KD wt))) [17]: 0.02
Substance: D3H44 Fab heterodimer, H1L1 of LCCA set 9651 (H: L143E_K145T_Q179E; L: Q124R_Q160K_T178R)

Kd [16]: 0.19 nM
Change in KD with respect to wild type (-(log(KD design) - log(KD wt))) [17]: -0.08
Substance: D3H44 Fab heterodimer, H1L1 of LCCA set 9657 (H: L143E_K145T_Q179E; L: Q124R_T178K)

Kd [16]: 0.3 nM
Change in KD with respect to wild type (-(log(KD design) - log(KD wt))) [17]: -0.28
Substance: D3H44 Fab heterodimer, H1L1 of LCCA set 9683 (H: L143E_K145T_Q179E; L: T178R)

Change in median values of KD of h1|1 Fab heterodimer compared to wild type (-(log(KD design)-log(KD wt))) [18]: -0.01 log units
Kd [18]: 0.16 nM
Substance: D3H44 H1L1 Fab heterodimer of LCCA set 9079 (H1 K145T_Q179E; L1 S131K)

Change in median values of KD of h1l1 Fab heterodimer compared to wild type (-(log(KD design)-log(KD wt))) [19]: 0.07
Kd [20]: 0.13 nM
Substance: H1L1 Fab heterodimer of LCCA Set # 9068 (D3H44 Fab; H1 F174G, L1 S131T_S176F_T178F)

Change in median values of KD of h1l1 Fab heterodimer compared to wild type (-(log(KD design)-log(KD wt))) [19]: 0.04
Kd [20]: 0.14 nM
Substance: H1L1 Fab heterodimer of LCCA Set # 9073 (D3H44 Fab; H1 F174V, L1 S131T_S176F_T178Y)

Kd [21]: 0.15 nM
Change in median values of KD of h1l1 Fab heterodimer compared to wild type (-(log(KD design)-log(KD wt))) [22]: 0.01 log units
Substance: H1L1 Fab heterodimer of LCCA sets 9078, 9077 and 9076 (D3H44 Fab, H1 H172T_Q179K, L1 Q124E_N137K_Q160E_S174R_T180E)

Kd [21]: 0.24 nM
Change in median values of KD of h1l1 Fab heterodimer compared to wild type (-(log(KD design)-log(KD wt))) [22]: -0.19 log units
Substance: H1L1 Fab heterodimer of LCCA sets 9721, 9720, 9723, 9722, 9725, 9716, 9712 and 9708 (D3H44 Fab, H1 L143E_K145T_S188L, L1 Q124R_Q160K_T178R)

Source: patent US11306156
